From the supplement of paper PMC5998384

Assays:
HeLa Kyoto [1] = assay: solubility in G1/S (NP-40 vs SDS abundance) (log2 ratio); higher = more soluble; conditions: cell cycle stage: G1/S
HeLa Kyoto [2] = assay: solubility change mitosis vs G1/S (difference of NP-40 vs SDS log2 ratios) (log2 ratio difference); higher = more soluble in mitosis
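Wherever solubility change mitosis vs G1/S (difference of NP-40 vs SDS log2 ratios) is given: synchronized HeLa Kyoto cells (double thymidine block for G1/S, nocodazole release for mitosis), protein amounts in NP-40 versus SDS lysates quantified by mass spectrometry, three biological replicates.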
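Wherever solubility in G1/S (NP-40 vs SDS abundance) is given: HeLa Kyoto cells arrested at G1/S by double thymidine block, proteins quantified by TMT10plex mass spectrometry in mild NP-40 versus SDS extracts, three biological replicates.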

| Substance | solubility in G1/S (log2) (HeLa Kyoto [1]) | solubility change mitosis (log2) (HeLa Kyoto [2]) |
| --- | --- | --- |
| MQQESERCRVRARRPDMALYVPKARRGAVLLKTGDEEESCGSPNSVVKEKQKESSLSQKEVFKDKPEARRLNINPDRKEHNCREEKKSSTKLRMDTCLQKTNRVCSKRGTTESKEVLSQGQQQGAPNAGVITNAPLQRHFKPKKVECLEVETTDVTGHERILLSQACLEISEAQVPSKPFQNVEFCDFSRHEPDGEAFEDKDLEGRIETDTKVLEILYEFPRVFSSVMKPENMIVPIKLSSDSEIVQQSMQTSDGILNPSSGGITTTSVPGSPDGVFDQTCVDFEVESVGGIANSTGFILDQKDTDSIPATMGHISLSESTNDTVSPVMIRECEKNDSTADELHVKHEPPDTAVLAHETHRDSGFKNVGDITNKACMMDTTGMSCSDHVTVDSPYVVAVRIADETSINTRSFSKFVGMSADATPLHVARSGNDTEDFSNPSACSDIYGESISSHFTESTGKLIESLSDCASSLPIKKIAGSNYNTFLDSELSMLNGTKVLSDSAVGIDLGSTGDTTEALHELRTAEEFKTEEQDDSGSIEFGVSFPDRESSSMETSIEPKATETSHTEGITAIEESWESMFNDDGDCLDPRLLQEGILMHIKPENHCSKLSGNTKSRESIQEPRSDYYNHEVPDIDLSDCEFPHVIEIYDFPQEFHTEDLLRVFCSYQKKGFDIKWVDDTHALGVFSSPITARDALGIKHTMVKIRPLSQATRAAKAKARAYAEFLQPAKERPETSAALARRLVISALGVRSKQSKTEREAELKKLQEARERKRLEAKQREDIWEGRDQSTV [R3HCC1L] | -0.118 | 0.112 |
| MRSFLQQDVNKTKSRLNVLNGLANNMDDLKINTDITGAKEELLDDNNFISDKESGVHKPKDCQTSFQKNNTLTLPEELSKDKSENALSGGQSSLFIHAGAPTVSSENFILPKGAAVNGPVSHSSLTKTSNMNKGSVSLTTGQPVDQPTTESCSTLKVAADLQLSTPQKASQHQVLFLLSDVAHAKNPTHSNKKLPTSASVGCDIQNSVGSNIKSDGTLINQVEVGEDGEDLLVKDDCVNTVTGISSGTDGFRSENDTNWDPQKEFIQFLMTNEETVDKAPPHSKIGLEKKRKRKMDVSKITRYTEDCFSDSNCVPNKSKMQEVDFLEQNEELQAVDSQKYALSKVKPESTDEDLESVDAFQHLIYNPDKCGEESSPVHTSTFLSNTLKKKCEESDSESPATFSTEEPSFYPCTKCNVNFREKKHLHRHMMYHLDGNSHFRHLNVPRPYACRECGRTFRDRNSLLKHMIIHQERRQKLMEEIRELKELQDEGRSARLQCPQCVFGTNCPKTFVQHAKTHEKDKRYYCCEECNFMAVTENELECHRGIAHGAVVKCPMVTSDIAQRKTQKKTFMKDSVVGSSKKSATYICKMCPFTTSAKSVLKKHTEYLHSSSCVDSFGSPLGLDKRKNDILEEPVDSDSTKTLTKQQSTTFPKNSALKQDVKRTFGSTSQSSSFSKIHKRPHRIQKARKSIAQSGVNMCNQNSSPHKNVTIKSSVDQKPKYFHQAAKEKSNAKANSHYLYRHKYENYRMIKKSGESYPVHFKKEEASSLNSLHLFSSSSNSHNNFISDPHKPDAKRPESFKDHRRVAVKRVIKESKKESSVGGEDLDSYPDFLHKMTVVVLQKLNSAEKKDSYETEDESSWDNVELGDYTTQAIEDETYSDINQEHVNLFPLFKSKVEGQEPGENATLSYDQNDGFYFEYYEDTGSNNFLHEIHDPQHLETADASLSKHSSVFHWTDLSLEKKSCPYCPATFETGVGLSNHVRGHLHRAGLSYEARHVVSPEQIATSDKMQHFKRTGTGTPVKRVRKAIEKSETTSEHTCQLCGGWFDTKIGLSNHVRGHLKRLGKTKWDAHKSPICVLNEMMQNEEKYEKILKALNSRRIIPRPFVAQKLASSDDFISQNVIPLEAYRNGLKTEALSVSASEEEGLNFLNEYDETKPELPSGKKNQSLTLIELLKNKRMGEERNSAISPQKIHNQTARKRFVQKCVLPLNEDSPLMYQPQKMDLTMHSALDCKQKKSRSRSGSKKKMLTLPHGADEVYILRCRFCGLVFRGPLSVQEDWIKHLQRHIVNANLPRTGAGMVEVTSLLKKPASITETSFSLLMAEAAS [ZNF644] | -0.00511 | 0.321 |
| MERPSLRALLLGAAGLLLLLLPLSSSSSSDTCGPCEPASCPPLPPLGCLLGETRDACGCCPMCARGEGEPCGGGGAGRGYCAPGMECVKSRKRRKGKAGAAAGGPGVSGVCVCKSRYPVCGSDGTTYPSGCQLRAASQRAESRGEKAITQVSKGTCEQGPSIVTPPKDIWNVTGAQVYLSCEVIGIPTPVLIWNKVKRGHYGVQRTELLPGDRDNLAIQTRGGPEKHEVTGWVLVSPLSKEDAGEYECHASNSQGQASASAKITVVDALHEIPVKKGEGAEL [IGFBP7] | 0.0794 | 0.407 |
| MNRSRAIVQRGRVLPPPAPLDTTNLAGRRTLQGRAKMASVPVYCLCRLPYDVTRFMIECDMCQDWFHGSCVGVEEEKAADIDLYHCPNCEVLHGPSIMKKRRGSSKGHDTHKGKPVKTGSPTFVRELRSRTFDSSDEVILKPTGNQLTVEFLEENSFSVPILVLKKDGLGMTLPSPSFTVRDVEHYVGSDKEIDVIDVTRQADCKMKLGDFVKYYYSGKREKVLNVISLEFSDTRLSNLVETPKIVRKLSWVENLWPEECVFERPNVQKYCLMSVRDSYTDFHIDFGGTSVWYHVLKGEKIFYLIRPTNANLTLFECWSSSSNQNEMFFGDQVDKCYKCSVKQGQTLFIPTGWIHAVLTPVDCLAFGGNFLHSLNIEMQLKAYEIEKRLSTADLFRFPNFETICWYVGKHILDIFRGLRENRRHPASYLVHGGKALNLAFRAWTRKEALPDHEDEIPETVRTVQLIKDLAREIRLVEDIFQQNVGKTSNIFGLQRIFPAGSIPLTRPAHSTSVSMSRLSLPSKNGSKKKGLKPKELFKKAERKGKESSALGPAGQLSYNLMDTYSHQALKTGSFQKAKFNITGACLNDSDDDSPDLDLDGNESPLALLMSNGSTKRVKSLSKSRRTKIAKKVDKARLMAEQVMEDEFDLDSDDELQIDERLGKEKATLIIRPKFPRKLPRAKPCSDPNRVREPGEVEFDIEEDYTTDEDMVEGVEGKLGNGSGAGGILDLLKASRQVGGPDYAALTEAPASPSTQEAIQGMLCMANLQSSSSSPATSSLQAWWTGGQDRSSGSSSSGLGTVSNSPASQRTPGKRPIKRPAYWRTESEEEEENASLDEQDSLGACFKDAEYIYPSLESDDDDPALKSRPKKKKNSDDAPWSPKARVTPTLPKQDRPVREGTRVASIETGLAAAAAKLAQQELQKAQKKKYIKKKPLLKEVEQPRPQDSNLSLTVPAPTVAATPQLVTSSSPLPPPEPKQEALSGSLADHEYTARPNAFGMAQANRSTTPMAPGVFLTQRRPSVGSQSNQAGQGKRPKKGLATAKQRLGRILKIHRNGKLLL [PHF8] | -0.765 | 0.336 |
| MGEPSREEYKIQSFDAETQQLLKTALKDPGAVDLEKVANVIVDHSLQDCVFSKEAGRMCYAIIQAESKQAGQSVFRRGLLNRLQQEYQAREQLRARSLQGWVCYVTFICNIFDYLRVNNMPMMALVNPVYDCLFRLAQPDSLSKEEEVDCLVLQLHRVGEQLEKMNGQRMDELFVLIRDGFLLPTGLSSLAQLLLLEIIEFRAAGWKTTPAAHKYYYSEVSD [MIF4GD] | 0.085 | 0.238 |
| MEQRRVTDFFARRRPGPPRIAPPKLACRTPSPARPALRAPASATSGSRKRARPPAAPGRDQARPPARRRLRLSVDEVSSPSTPEAPDIPACPSPGQKIKKSTPAAGQPPHLTSAQDQDTISELASCLQRARELGARVRALKASAQDAGESCTPEAEGRPEEPCGEKAPAYQRFHALAQPGLPGLVLPYKYQVLAEMFRSMDTIVGMLHNRSETPTFAKVQRGVQDMMRRRFEECNVGQIKTVYPASYRFRQERSVPTFKDGTRRSDYQLTIEPLLEQEADGAAPQLTASRLLQRRQIFSQKLVEHVKEHHKAFLASLSPAMVVPEDQLTRWHPRFNVDEVPDIEPAALPQPPATEKLTTAQEVLARARNLISPRMEKALSQLALRSAAPSSPGSPRPALPATPPATPPAASPSALKGVSQDLLERIRAKEAQKQLAQMTRCPEQEQRLQRLERLPELARVLRSVFVSERKPALSMEVACARMVGSCCTIMSPGEMEKHLLLLSELLPDWLSLHRIRTDTYVKLDKAADLAHITARLAHQTRAEEGL [CDT1] | 0.0981 | 0.575 |
| SZT2 | -0.476 | 0.317 |
| MDIAIHHPWIRRPFFPFHSPSRLFDQFFGEHLLESDLFPTSTSLSPFYLRPPSFLRAPSWFDTGLSEMRLEKDRFSVNLDVKHFSPEELKVKVLGDVIEVHGKHEERQDEHGFISREFHRKYRIPADVDPLTITSSLSSDGVLTVNGPRKQVSGPERTIPITREEKPAVTAAPKK [CRYAB] | -0.171 | 0.00397 |
| MGRKKIQIQRITDERNRQVTFTKRKFGLMKKAYELSVLCDCEIALIIFNHSNKLFQYASTDMDKVLLKYTEYNEPHESRTNADIIETLRKKGFNGCDSPEPDGEDSLEQSPLLEDKYRRASEELDGLFRRYGSTVPAPNFAMPVTVPVSNQSSLQFSNPSGSLVTPSLVTSSLTDPRLLSPQQPALQRNSVSPGLPQRPASAGAMLGGDLNSANGACPSPVGNGYVSARASPGLLPVANGNSLNKVIPAKSPPPPTHSTQLGAPSRKPDLRVITSQAGKGLMHHLTEDHLDLNNAQRLGVSQSTHSLTTPVVSVATPSLLSQGLPFSSMPTAYNTDYQLTSAELSSLPAFSSPGGLSLGNVTAWQQPQQPQQPQQPQPPQQQPPQPQQPQPQQPQQPQQPPQQQSHLVPVSLSNLIPGSPLPHVGAALTVTTHPHISIKSEPVSPSRERSPAPPPPAVFPAARPEPGDGLSSPAGGSYETGDRDDGRGDFGPTLGLLRPAPEPEAEGSAVKRMRLDTWTLK [MEF2D] | 0.219 | 0.0539 |
| CBWD1 | 0.26 | -0.0771 |
| MSWLFPLTKSASSSAAGSPGGLTSLQQQKQRLIESLRNSHSSIAEIQKDVEYRLPFTINNLTININILLPPQFPQEKPVISVYPPIRHHLMDKQGVYVTSPLVNNFTMHSDLGKIIQSLLDEFWKNPPVLAPTSTAFPYLYSNPSGMSPYASQGFPFLPPYPPQEANRSITSLSVADTVSSSTTSHTTAKPAAPSFGVLSNLPLPIPTVDASIPTSQNGFGYKMPDVPDAFPELSELSVSQLTDMNEQEEVLLEQFLTLPQLKQIITDKDDLVKSIEELARKNLLLEPSLEAKRQTVLDKYELLTQMKSTFEKKMQRQHELSESCSASALQARLKVAAHEAEEESDNIAEDFLEGKMEIDDFLSSFMEKRTICHCRRAKEEKLQQAIAMHSQFHAPL [VPS37A] | 0.656 | -0.0301 |
| MAAGAGAGSAPRWLRALSEPLSAAQLRRLEEHRYSAAGVSLLEPPLQLYWTWLLQWIPLWMAPNSITLLGLAVNVVTTLVLISYCPTATEEAPYWTYLLCALGLFIYQSLDAIDGKQARRTNSCSPLGELFDHGCDSLSTVFMAVGASIAARLGTYPDWFFFCSFIGMFVFYCAHWQTYVSGMLRFGKVDVTEIQIALVIVFVLSAFGGATMWDYTIPILEIKLKILPVLGFLGGVIFSCSNYFHVILHGGVGKNGSTIAGTSVLSPGLHIGLIIILAIMIYKKSATDVFEKHPCLYILMFGCVFAKVSQKLVVAHMTKSELYLQDTVFLGPGLLFLDQYFNNFIDEYVVLWMAMVISSFDMVIYFSALCLQISRHLHLNIFKTACHQAPEQVQVLSSKSHQNNMD [CHPT1] | -0.277 | -0.173 |
